Test results from patent publication US20110287963A1.

Tests used:
[1] = target: GCN4 leucine zipper (wild-type) fused to the α fragment of β-lactamase (E. coli (plasmid pBR322)) (UniProt P03069); experiment: cell-based or functional assay
[2] = target: GCN4-PP, double proline mutant of the GCN4 leucine zipper, fused to the α fragment of β-lactamase (E. coli (plasmid pBR322)) (UniProt P03069); experiment: cell-based or functional assay

scFv-GCN4 fused to the ω fragment of β-lactamase (pDMB-P1-ωBLA construct)
MBC (minimum bacteriocidal concentration) on ampicillin, fold over the α-Jun negative control [1]: 2 fold | MBC (minimum bacteriocidal concentration) on ampicillin, fold over the α-Jun negative control [2]: 16 fold
